Assay results taken from patent US20190359653A1 (Genentech, published 2019).
Ends that are not written are not given here.

T1: hFZD8 CRD-Fc (human, UniProt Q9H461 28-158, limits assumed)
T1 construct: domain: CRD; bought (R&D Systems); not shown: Fc part
T1 sequence (looked up): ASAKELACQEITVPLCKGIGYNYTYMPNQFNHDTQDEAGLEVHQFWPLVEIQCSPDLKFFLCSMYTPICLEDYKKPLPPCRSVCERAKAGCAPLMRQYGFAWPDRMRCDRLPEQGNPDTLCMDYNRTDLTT

T2: hFZD5 CRD-Fc (human, UniProt Q13467 27-167, limits assumed)
T2 construct: domain: CRD; bought (R&D Systems); not shown: Fc part
T2 sequence (looked up): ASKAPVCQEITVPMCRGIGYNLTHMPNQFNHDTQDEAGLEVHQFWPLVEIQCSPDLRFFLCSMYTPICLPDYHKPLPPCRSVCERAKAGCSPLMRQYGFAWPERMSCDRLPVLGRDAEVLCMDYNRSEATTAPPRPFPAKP

T3: hFZD4 CRD-Fc (human, UniProt Q9ULV1 37-180, limits assumed)
T3 construct: domain: CRD; bought (R&D Systems); not shown: Fc part
T3 sequence (looked up): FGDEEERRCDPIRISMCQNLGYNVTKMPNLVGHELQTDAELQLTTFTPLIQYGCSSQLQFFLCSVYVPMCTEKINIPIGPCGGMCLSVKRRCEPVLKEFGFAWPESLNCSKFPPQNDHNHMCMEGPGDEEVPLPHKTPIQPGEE

T4: mFZD9 CRD-Fc (mouse, UniProt Q9R216 24-176, limits assumed)
T4 construct: domain: CRD; bought (R&D Systems); not shown: Fc part
T4 sequence (looked up): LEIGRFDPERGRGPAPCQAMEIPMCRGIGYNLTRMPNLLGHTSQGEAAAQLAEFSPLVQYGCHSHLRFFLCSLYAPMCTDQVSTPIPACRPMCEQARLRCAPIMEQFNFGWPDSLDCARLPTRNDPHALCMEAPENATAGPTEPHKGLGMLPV

T5: hFZD10 CRD-Fc (human, UniProt Q9ULW2 21-161, limits assumed)
T5 construct: domain: CRD; bought (R&D Systems); not shown: Fc part
T5 sequence (looked up): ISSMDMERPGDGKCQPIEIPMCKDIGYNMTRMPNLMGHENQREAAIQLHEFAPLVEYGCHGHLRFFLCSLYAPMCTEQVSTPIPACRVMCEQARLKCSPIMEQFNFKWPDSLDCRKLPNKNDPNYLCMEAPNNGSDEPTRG

T6: hsFRP2 (human, UniProt Q96HF1 25-295)
T6 construct: bought (R&D Systems); also called human sFRP2
T6 sequence (looked up): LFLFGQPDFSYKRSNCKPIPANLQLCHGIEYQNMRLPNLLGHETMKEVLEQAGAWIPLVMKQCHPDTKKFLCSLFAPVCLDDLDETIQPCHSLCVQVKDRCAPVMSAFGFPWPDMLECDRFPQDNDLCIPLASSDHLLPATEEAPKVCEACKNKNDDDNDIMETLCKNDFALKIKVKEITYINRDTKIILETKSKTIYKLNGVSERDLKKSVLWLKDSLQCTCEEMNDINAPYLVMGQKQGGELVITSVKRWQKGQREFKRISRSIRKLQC

T7: hsFRP-4 (human, UniProt Q6FHJ7 22-346, limits assumed)
T7 construct: bought (R&D Systems); also called human sFRP4
T7 sequence (looked up): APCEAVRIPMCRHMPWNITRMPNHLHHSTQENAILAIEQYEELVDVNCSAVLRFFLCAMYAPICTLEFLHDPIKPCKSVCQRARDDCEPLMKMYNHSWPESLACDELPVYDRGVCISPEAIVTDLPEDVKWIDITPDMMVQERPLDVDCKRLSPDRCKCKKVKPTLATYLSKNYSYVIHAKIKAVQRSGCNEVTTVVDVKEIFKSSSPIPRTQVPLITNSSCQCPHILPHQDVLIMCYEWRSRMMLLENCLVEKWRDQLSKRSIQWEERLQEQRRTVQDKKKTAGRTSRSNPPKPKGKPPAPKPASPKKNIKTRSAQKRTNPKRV

T8: hsFRP-5 (human, UniProt Q5T4F7 30-317)
T8 construct: bought (R&D Systems); also called human sFRP5
T8 sequence (looked up): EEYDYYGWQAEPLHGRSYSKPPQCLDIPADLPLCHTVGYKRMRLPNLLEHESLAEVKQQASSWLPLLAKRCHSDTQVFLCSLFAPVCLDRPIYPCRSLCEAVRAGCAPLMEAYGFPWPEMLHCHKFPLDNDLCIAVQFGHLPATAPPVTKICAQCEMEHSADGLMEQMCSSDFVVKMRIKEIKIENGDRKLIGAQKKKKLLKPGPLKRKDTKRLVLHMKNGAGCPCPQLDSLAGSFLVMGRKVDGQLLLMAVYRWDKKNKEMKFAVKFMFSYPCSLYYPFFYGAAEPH

T9: hsFRP1 (human, UniProt Q8N474 32-314)
T9 construct: bought (R&D Systems); also called human sFRP1
T9 sequence (looked up): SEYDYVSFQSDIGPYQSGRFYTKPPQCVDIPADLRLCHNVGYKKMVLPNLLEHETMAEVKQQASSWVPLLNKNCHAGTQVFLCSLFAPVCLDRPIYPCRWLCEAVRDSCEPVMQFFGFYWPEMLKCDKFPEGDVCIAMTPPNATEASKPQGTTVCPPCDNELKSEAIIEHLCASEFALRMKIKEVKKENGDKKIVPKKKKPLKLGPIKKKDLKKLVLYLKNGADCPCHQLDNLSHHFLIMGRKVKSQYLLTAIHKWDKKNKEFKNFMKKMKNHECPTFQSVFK

T10: hsFRP-3 (human, UniProt Q92765 33-325)
T10 construct: bought (R&D Systems); also called human sFRP3
T10 sequence (looked up): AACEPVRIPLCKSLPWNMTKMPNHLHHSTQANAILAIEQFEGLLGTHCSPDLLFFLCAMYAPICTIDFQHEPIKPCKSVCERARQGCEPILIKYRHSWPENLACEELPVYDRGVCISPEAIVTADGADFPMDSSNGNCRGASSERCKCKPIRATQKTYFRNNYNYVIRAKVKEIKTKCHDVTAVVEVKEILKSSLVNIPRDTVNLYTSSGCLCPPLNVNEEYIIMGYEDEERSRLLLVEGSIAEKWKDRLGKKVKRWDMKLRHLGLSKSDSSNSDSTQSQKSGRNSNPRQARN


Tests used:
hFZD8 CRD-Fc = target: T1, hFZD8 CRD-Fc; assay: fluorescence titration, 50 nM labelled peptide vs FZD CRD-Fc dilutions (Monolith NT.115); NC = no change
hFZD5 CRD-Fc = target: T2, hFZD5 CRD-Fc; assay: as above
hFZD4 CRD-Fc = target: T3, hFZD4 CRD-Fc; assay: as above
mFZD9 CRD-Fc = target: T4, mFZD9 CRD-Fc; assay: as above
hFZD10 CRD-Fc = target: T5, hFZD10 CRD-Fc; assay: as above
hsFRP2 = target: T6, hsFRP2; assay: fluorescence size-exclusion chromatography (FSEC)
hsFRP-4 = target: T7, hsFRP-4; assay: fluorescence size-exclusion chromatography (FSEC)
hsFRP-5 = target: T8, hsFRP-5; assay: fluorescence size-exclusion chromatography (FSEC)
hsFRP1 = target: T9, hsFRP1; assay: fluorescence size-exclusion chromatography (FSEC)
hsFRP-3 = target: T10, hsFRP-3; assay: fluorescence size-exclusion chromatography (FSEC)
hFZD1 CRD-Fc = target: T11, hFZD1 CRD-Fc (human, UniProt Q9UP38 70-250, limits assumed); assay: fluorescence titration, 50 nM labelled peptide vs FZD CRD-Fc dilutions (Monolith NT.115)
T11 construct: domain: CRD; bought (R&D Systems); not shown: Fc part
T11 sequence (Q9UP38 70-250 limits assumed): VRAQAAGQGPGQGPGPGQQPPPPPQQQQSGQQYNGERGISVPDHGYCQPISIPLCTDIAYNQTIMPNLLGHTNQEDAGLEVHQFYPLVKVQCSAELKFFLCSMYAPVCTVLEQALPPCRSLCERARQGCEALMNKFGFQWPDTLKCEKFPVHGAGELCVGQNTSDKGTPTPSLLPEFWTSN

hFZD7 CRD-Fc [1] = target: T12, hFZD7 CRD-Fc (human, UniProt O75084 33-185); assay: as above
mFZD7 CRD-Fc [2] = target: T13, mFZD7 CRD-Fc (mouse, UniProt Q61090 33-185); assay: as above
mFZD2 CRD-Fc [3] = target: T14, mFZD2 CRD-Fc (mouse, UniProt Q9JIP6 29-178, limits assumed); assay: as above
T14 construct: domain: CRD; bought (R&D Systems); not shown: Fc part

hFZD7 CRD-Fc [4] = target: T12, hFZD7 CRD-Fc; assay: fluorescence titration, 50 nM labelled peptide vs FZD CRD-Fc dilutions (Monolith NT.115); NC = no change
mFZD7 CRD-Fc [5] = target: T13, mFZD7 CRD-Fc; assay: as above
mFZD2 CRD-Fc [6] = target: T14, mFZD2 CRD-Fc; assay: as above
[7] = target: T15, FZD7 receptor of HEK293-TB cells (human, UniProt O75084 33-574); assay: cell-based or functional assay
[8] = target: T15, FZD7 receptor of HEK293-TB cells; assay: cell-based or functional assay; remark: listed apart in the source
[9] = target: T15, FZD7 receptor of HEK293-TB cells; assay: cell-based or functional assay; remark: listed apart in the source

| Binder | binding result (hFZD8 CRD-Fc) | binding result (hFZD5 CRD-Fc) | binding result (hFZD4 CRD-Fc) | binding result (mFZD9 CRD-Fc) | binding result (hFZD10 CRD-Fc) | binding result (hsFRP2) | binding result (hsFRP-4) | binding result (hsFRP-5) | binding result (hsFRP1) | binding result (hsFRP-3) | also measured |
| --- | --- | --- | --- | --- | --- | --- | --- | --- | --- | --- | --- |
| LPSDDLEFWCHVMY-NH2 (also: 5-carboxyfluorescein (5FAM) label, site not given here, synthetic) [5FAM-Fz7-21] | no binding | no binding | no binding | no binding | no binding | no binding (tested: 10 µM peptide, ~250 nM sFRP) | no binding (tested: 10 µM peptide, ~250 nM sFRP) | no binding (tested: 10 µM peptide, ~250 nM sFRP) | no binding (tested: 10 µM peptide, ~250 nM sFRP) | no binding (tested: 10 µM peptide, ~250 nM sFRP) | EC50 (hFZD1 CRD-Fc): 39 nM; EC50 (hFZD7 CRD-Fc [1]): 116 nM; EC50 (mFZD7 CRD-Fc [2]): 67 nM; EC50 (mFZD2 CRD-Fc [3]): 60 nM |
| LPSDDLEFWSHVMY-NH2 (also: 5-carboxyfluorescein (5FAM) label, site not given here, synthetic control peptide (C10S)) [5FAM-Fz7-21S] | no binding | no binding | no binding | no binding | no binding | no binding (tested: 10 µM peptide, ~250 nM sFRP) | no binding (tested: 10 µM peptide, ~250 nM sFRP) | no binding (tested: 10 µM peptide, ~250 nM sFRP) | no binding (tested: 10 µM peptide, ~250 nM sFRP) | no binding (tested: 10 µM peptide, ~250 nM sFRP) | binding result (hFZD7 CRD-Fc [4]): no binding; binding result (mFZD7 CRD-Fc [5]): no binding; binding result (mFZD2 CRD-Fc [6]): no binding |
| Ac-LPSDDLEFWCHVMY-NH2 [Fz7-21] | – | – | – | – | – | – | – | – | – | – | IC50 (µM), Wnt3a-mediated β-catenin signaling, TOPbrite reporter in HEK293-TB cells (50 ng/mL mWnt3a) [7]: 0.1 µM; IC50 (nM), TOPbrite reporter assay in HEK293-TB cells stimulated with mWnt3a (50 ng/mL) [8]: 465 nM; Reduction in fold potency vs. dimer [8]: 42 fold; IC50, Wnt1-stimulated β-catenin signaling, HEK293-TB cells transfected with 5 ng plasmid (FIG. 2C) [9]: 1090 nM; IC50, Wnt1-stimulated β-catenin signaling, HEK293-TB cells transfected with 25 ng plasmid (FIG. 2C) [9]: 2660 nM; IC50, Wnt3a-stimulated β-catenin signaling, HEK293-TB cells transfected with 5 ng pCDNA3.2-Wnt3a (FIG. 2B) [9]: 330 nM; IC50, Wnt3a-stimulated β-catenin signaling, HEK293-TB cells transfected with 25 ng pCDNA3.2-Wnt3a (FIG. 2B) [9]: 419 nM; IC50, Wnt3a-stimulated β-catenin signaling, HEK293-TB cells, recombinant mWnt3a 50 ng/mL (FIG. 2A) [9]: 93.7 nM |
